Reference: paper PMC2642718

Target: CD43 (leukosialin) on the surface of primary human neutrophils (human (endogenous in primary neutrophils)) (UniProt P16150)
UniProt P16150, sequence (P16150 20-400): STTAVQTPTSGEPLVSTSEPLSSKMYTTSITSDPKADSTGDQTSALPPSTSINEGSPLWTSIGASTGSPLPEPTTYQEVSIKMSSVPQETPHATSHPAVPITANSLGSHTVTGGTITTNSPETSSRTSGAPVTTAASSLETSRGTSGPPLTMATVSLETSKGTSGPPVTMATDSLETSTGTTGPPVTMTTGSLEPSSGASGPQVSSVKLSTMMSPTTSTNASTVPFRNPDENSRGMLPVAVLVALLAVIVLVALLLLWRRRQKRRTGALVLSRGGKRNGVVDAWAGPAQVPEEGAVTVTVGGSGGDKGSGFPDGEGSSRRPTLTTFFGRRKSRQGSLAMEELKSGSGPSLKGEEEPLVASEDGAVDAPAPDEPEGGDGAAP

Substance | migration of human neutrophils across Fbg-coated transwell filters toward fMLP, 25 µg/mL protein (fold reduction)
StcE E435D, proteolytically inactive point mutant (from UniProt O82882 36-898) (enzyme) | 1.7
StcE (Secreted protease of C1-esterase inhibitor), recombinant purified protein (from UniProt O82882 36-898) (enzyme) | 1.7
